In patent publication US20110311550A1 (Scripps Research, published 2011):

Experiments:
Test in all cases: ELISA, lectin-captured E1E2 lysate, Ab 1 ug/ml;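 note: E1E2 captured on Galanthus nivalis lectin-coated plates, bound test antibody read out by an HRP-linked secondary antibody and TMB colour development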
[1] = target: E1E2 complex (H77) with E1 mutation G315A (HCV genotype 1a, isolate H77, UniProt P27958 192-383; P27958 384-746)
[2] = target: E1E2 complex (H77) with E1 mutation N234A (HCV genotype 1a, isolate H77, UniProt P27958 192-383; P27958 384-746)
[3] = target: E1E2 complex (H77) with E1 mutation G350A (HCV genotype 1a, isolate H77, UniProt P27958 192-383; P27958 384-746)
[4] = target: E1E2 complex (H77) with E1 mutation I212A (HCV genotype 1a, isolate H77, UniProt P27958 192-383; P27958 384-746)
[5] = target: E1E2 complex (H77) with E1 mutation A319G (HCV genotype 1a, isolate H77, UniProt P27958 192-383; P27958 384-746)
[6] = target: E1E2 complex (H77) with E1 mutation Y276A (HCV genotype 1a, isolate H77, UniProt P27958 192-383; P27958 384-746)
[7] = target: E1E2 complex (H77) with E1 mutation P228A (HCV genotype 1a, isolate H77, UniProt P27958 192-383; P27958 384-746)
[8] = target: E1E2 complex (H77) with E1 mutation P328A (HCV genotype 1a, isolate H77, UniProt P27958 192-383; P27958 384-746)
[9] = target: E1E2 complex (H77) with E1 mutation S327A (HCV genotype 1a, isolate H77, UniProt P27958 192-383; P27958 384-746)
[10] = target: E1E2 complex (H77) with E1 mutation R296A (HCV genotype 1a, isolate H77, UniProt P27958 192-383; P27958 384-746)
[11] = target: E1E2 complex (H77) with E1 mutation A274G (HCV genotype 1a, isolate H77, UniProt P27958 192-383; P27958 384-746)
[12] = target: E1E2 complex (H77) with E1 mutation D321A (HCV genotype 1a, isolate H77, UniProt P27958 192-383; P27958 384-746)
[13] = target: E1E2 complex (H77) with E1 mutation M323A (HCV genotype 1a, isolate H77, UniProt P27958 192-383; P27958 384-746)
[14] = target: E1E2 complex (H77) with E1 mutation G225A (HCV genotype 1a, isolate H77, UniProt P27958 192-383; P27958 384-746)
[15] = target: E1E2 complex (H77) with E1 mutation N209A (HCV genotype 1a, isolate H77, UniProt P27958 192-383; P27958 384-746)
[16] = target: E1E2 complex (H77) with E1 mutation N196A (HCV genotype 1a, isolate H77, UniProt P27958 192-383; P27958 384-746)
[17] = target: E1E2 complex (H77) with E1 mutation T255A (HCV genotype 1a, isolate H77, UniProt P27958 192-383; P27958 384-746)
[18] = target: E1E2 complex (H77) with E1 mutation G354A (HCV genotype 1a, isolate H77, UniProt P27958 192-383; P27958 384-746)
[19] = target: E1E2 complex (H77) with E1 mutation P341A (HCV genotype 1a, isolate H77, UniProt P27958 192-383; P27958 384-746)
[20] = target: E1E2 complex (H77) with E1 mutation G282A (HCV genotype 1a, isolate H77, UniProt P27958 192-383; P27958 384-746)
[21] = target: E1E2 complex (H77) with E1 mutation N205A (HCV genotype 1a, isolate H77, UniProt P27958 192-383; P27958 384-746)
[22] = target: E1E2 complex (H77) with E1 mutation Q302A (HCV genotype 1a, isolate H77, UniProt P27958 192-383; P27958 384-746)

B1: N4 IgG (antibody, V domains shown)
VH: VQLLEQSGPEVKKPGDSLRISCKMSGDSLVTTWIGWVRQKPGQGLEWMGIINPGDSSTNIYPGDSATRYGPSFQGQVTISIDKSTSTAYLQWNNVKASDTGIYYCARHVPVPISGTFLWREREMHDFGYFDDWGQGTLVIVSS
VL: ELTLTQSPGTLSLSPGERATLSCRASQSVSNNYLAWYQQKPGQAPRLLIYGASSRATGIPDRFSGSGSGTGFTLIISRLEPEDFAVYYCQQYGSSSITFGQGTRLEIKR
notes: also called IgG N4
With B1 the “Binding relative to wt (%)” value [1] was 87%, the “Binding relative to wt (%)” value [2] was 114% and the “Binding relative to wt (%)” value [3] was 68%. The “Binding relative to wt (%)” value [4] was 51%, the “Binding relative to wt (%)” value [5] was 113% and the “Binding relative to wt (%)” value [6] was 103%. The “Binding relative to wt (%)” value [7] was 38%, the “Binding relative to wt (%)” value [8] was 127% and the “Binding relative to wt (%)” value [9] was 69%. The “Binding relative to wt (%)” value [10] was 138%, the “Binding relative to wt (%)” value [11] was 71% and the “Binding relative to wt (%)” value [12] was 92%. The “Binding relative to wt (%)” value [13] was 99%, the “Binding relative to wt (%)” value [14] was 79% and the “Binding relative to wt (%)” value [15] was 117%. For the same binder, the “Binding relative to wt (%)” value [16] was 52%, the “Binding relative to wt (%)” value [17] was 96% and the “Binding relative to wt (%)” value [18] was 90%. The “Binding relative to wt (%)” value [19] was 105%, the “Binding relative to wt (%)” value [20] was 128% and the “Binding relative to wt (%)” value [21] was 3%. The “Binding relative to wt (%)” value [22] was 6%.
